In experiment [1] the target is human fibronectin (human) (UniProt P02751). The experiment is described as follows: solid-phase competition, 125I-fibronectin on coated fibronectin.
Experiment [2] shares this target. The experiment can be described thus: solid-phase competition, 125I-14 kDa fragment on coated fibronectin.
Experiment [3] has the same target.

The source of these data is patent US5837813.

By IC50 is commonly meant the concentration that inhibits the measured activity by half. The low end stands for greater potency, the high end for weaker potency.

B1: polypeptide P3 (peptide)
peptide: LISIQQYGHQEVTRFDFTTTSTSTPVTSNTV
Consider B1, for which the IC50 in experiment [1] lay within 200 to 300 µM. Moreover, the fold less potent than P1 in experiment [2] was determined as 100 fold. Besides, the ^125 I-fibronectin bound to IMR-90 cells after one hour in experiment [3] was 25%.
